# Publication PMC5374433, “Theranostic Value of Multimers: Lessons Learned from Trimerization of Neurotensin Receptor Ligands and Other Targeting Vectors” (Pharmaceuticals, 2017)
# Like-named read-outs stand apart in the source and are kept apart here.
# Legend:
# [1] = cited from earlier work
# H2009 xenograft = conditions: in vivo, 1.5 h; cited from earlier work
# αvβ6 integrin [2] = test system: αvβ6 integrin; parameters: method as in PMID 27980050; conditions: Ga complexes; read-out: Affinity IC50 (nM), αvβ6 integrin; cited from earlier work
# [3] = Biodistribution, LNCaP xenograft; conditions: in vivo, 60 min p.i., estimated from PET ROI analysis, ± SD
# [4] = Octanol/PBS distribution coefficient log D pH 7.4; format: physicochemical
# PSMA = test system: PSMA; parameters: method as in PMID 25999035; conditions: Ga complexes; read-out: Affinity IC50 (nM), PSMA; cited from earlier work
# [5] = in vivo; cited from earlier work
# [6] = Biodistribution in HT29 tumor-bearing nude mice; format: in vivo, mouse; conditions: mouse, in vivo, 60 min p.i.
# Experimental: For in vivo evaluation of [^68Ga]Ga-TRAP(NT4)3 the NTS1-positive human colorectal adenocarcinoma cells HT29 were injected in nude mice to generate a subcutaneous tumor. The radioligand was injected in the tail vein of the mice and the biodistribution was determined 60 and 90 min after tracer injection. […] The clearance rate of [^68Ga]Ga-TRAP(NT4)3 in these excretion organs was apparently low. […] (1.44 %ID/g). Blocking experiments were performed to confirm the specificity of the tumor uptake of [^68Ga]Ga-TRAP(NT4)3 in vivo. Therefore, TRAP(NT4)3 (20 nmol) or NT4 (100 nmol) were co-injected together with the radiotracer to define the nonspecific uptake of the tracer in the tumor region. […] Apart from the intestine, the uptake in all other organs was not affected by the blocking substances (Table 2), confirming the receptor-mediated uptake of [^68Ga]Ga-TRAP(NT4)3, as it was reported that NTS receptors are expressed in the small intestine of mice.
# All animal experiments were performed in compliance with the protocols approved by the local Animal Protection Authorities (Regierung Mittelfranken, Germany, no. 54-2532.1-15/08). Female athymic NMRI nude mice (nu/nu) were obtained from Harlan Winkelmann GmbH (Borchen, Germany) at four weeks of age and were kept under standard conditions (12 h light/dark) with food and water available ad libitum for at least five weeks. HT29 tumors were generated as described before.
# HT29 xenografted nude mice were injected with [^68Ga]Ga-TRAP(NT4)3 into a tail vein (2.5–7.5 MBq/mouse). The animals were killed by cervical dislocation 60 or 90 min p.i. The tumors, other tissues (lung, liver, kidneys, heart, spleen, brain, muscle, femur, and intestine) and blood were removed and weighed. Radioactivity of the samples was measured using a γ-counter and expressed as the percentage of injected dose per gram of tissue (%ID/g), from which tumor-to-blood ratios were calculated. Blocking experiments were carried out by co-injecting randomly chosen mice with TRAP(NT4)3 (20 nmol/mouse) or NT4 (100 nmol/mouse) together with the radiotracer. These mice were killed by cervical dislocation at 60 min p.i., and organs and tissue were removed, weighed, and counted as described above.
# human NTS2 = biological target: T1, human NTS2 (Homo sapiens, UniProt O95665); test: Competitive radioligand binding assay, NTS2
# T1 construct: host or cells: HEK 293 cells (transient transfection, pcDNA3.1)
# T1 sequence (O95665 whole entry): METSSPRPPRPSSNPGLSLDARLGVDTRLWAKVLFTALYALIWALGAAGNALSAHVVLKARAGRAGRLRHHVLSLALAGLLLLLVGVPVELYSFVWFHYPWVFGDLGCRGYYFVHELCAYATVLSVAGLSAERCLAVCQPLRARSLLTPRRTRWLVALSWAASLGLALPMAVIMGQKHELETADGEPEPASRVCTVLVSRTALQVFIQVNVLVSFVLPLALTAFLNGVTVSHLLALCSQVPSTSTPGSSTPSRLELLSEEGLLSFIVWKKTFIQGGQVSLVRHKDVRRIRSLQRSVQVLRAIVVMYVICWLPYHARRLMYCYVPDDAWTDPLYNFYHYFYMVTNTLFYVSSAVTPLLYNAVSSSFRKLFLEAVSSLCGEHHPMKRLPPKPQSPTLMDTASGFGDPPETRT
# Experimental: (§1) Receptor binding data were performed as described previously. […] NTS2 binding was conducted using homogenates of membranes from HEK 293 cells transiently transfected with pcDNA3.1 carrying the human NTS2 gene (Missouri S&T cDNA Resource Center (UMR), Rolla, MO, USA) using the Mirus TransIT-293 transfection reagent (MoBiTec, Göttingen, Germany) according to the manufacturer’s protocol.
# (§2) Data analysis of the competition binding curves from the radioligand displacement experiments was done by non-linear regression analysis when applying the algorithms of the PRISM 6.0 software package (GraphPad Software, San Diego, CA, USA). EC50 values were derived from each dose-response curve and were subsequently transformed into the corresponding Ki values by applying the equation of Cheng and Prusoff. Mean Ki values and the corresponding S.E.M. values (standard error of the mean) were determined by analyzing four to eight individual experiments.
# human NTS1 = human NTS1 (Homo sapiens, UniProt P30989); test: Competitive radioligand binding assay, NTS1; conditions: Ki (NTS1, nM), membranes of CHO cells stably expressing human NTS1; mean ± SEM, 4-8 experiments
# human NTS1, sequence (P30989 whole entry): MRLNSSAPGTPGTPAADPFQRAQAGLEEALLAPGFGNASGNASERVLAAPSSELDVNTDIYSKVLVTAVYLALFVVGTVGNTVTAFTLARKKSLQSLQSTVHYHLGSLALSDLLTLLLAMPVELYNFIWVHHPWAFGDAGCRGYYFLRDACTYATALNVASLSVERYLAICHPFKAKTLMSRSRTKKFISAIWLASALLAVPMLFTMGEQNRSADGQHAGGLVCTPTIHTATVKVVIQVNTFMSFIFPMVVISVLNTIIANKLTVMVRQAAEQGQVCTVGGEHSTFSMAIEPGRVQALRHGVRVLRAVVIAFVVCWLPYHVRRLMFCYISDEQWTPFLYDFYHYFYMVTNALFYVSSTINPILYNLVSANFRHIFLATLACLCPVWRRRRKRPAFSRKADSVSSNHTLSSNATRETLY
# Experimental: as §1, §2
# αvβ6 integrin [7] = test: Affinity to αvβ6 integrin; format: binding; conditions: Ga complexes
# [8] = in vivo, H2009 xenograft, 90 min p.i., estimated from PET ROI analysis, ± SD
compound,measurement,setting,value
"TRAP(AvB6)1: Ga-monomer of c(FRGDLAF-p[NMe]K), αvβ6 integrin (cyclo(FRGDLAF); not fully specified (C-terminus); also: TRAP chelator Ga complex, attachment site not given here)",log D pH 7.4,[1],−3.7
same,Blood %ID/g,H2009 xenograft,0.17 %ID/g
same,Kidney %ID/g,H2009 xenograft,4.3 %ID/g
same,Liver %ID/g,H2009 xenograft,0.36 %ID/g
same,Muscle %ID/g,H2009 xenograft,0.06 %ID/g
same,Tumor %ID/g,H2009 xenograft,0.65 %ID/g
same,IC50,αvβ6 integrin [2],0.26 nM
O=C(O)CC[C@H](NC(=O)N[C@@H](CCCCNC(=O)CCCCCCC(=O)NCCCC[C@H](NC(=O)[C@H](Cc1ccccc1)NC(=O)[C@H](Cc1ccccc1)NC(=O)CCC(C(=O)O)N1CCN(CC(=O)O)CCN(CC(=O)O)CCN(CC(=O)O)CC1)C(=O)O)C(=O)O)C(=O)O (stereo partly shown) [DOTAGA-DUPA],tissue uptake at 1 h,[3]; read-out: Blood %ID/g,2.5 ± 0.14 %ID/g
same,tissue uptake at 1 h,[3]; read-out: Kidney %ID/g,29 ± 7 %ID/g
same,tissue uptake at 1 h,[3]; read-out: Liver %ID/g,2 ± 0.17 %ID/g
same,tissue uptake at 1 h,[3]; read-out: Muscle %ID/g,1.2 ± 0.13 %ID/g
same,tissue uptake at 1 h,[3]; read-out: Tumor %ID/g,2 ± 0.2 %ID/g
same,logD,[4],-3.6 ± 0.2
same,IC50,PSMA,36 nM
Arg^8-Arg^9-Pro^10-Tyr^11-Ile^12-Leu^13-OH [NT(8–13)],biological half-life,[5],"only a few minutes, or even less"
CC(C)C[C@H](NC(=O)[C@@H](NC(=O)[C@H](Cc1ccc(O)cc1)NC(=O)[C@@H]1CCCN1C(=O)[C@H](CCCCN)NC(=O)CN(CCCCN)C(=O)[C@@H](N)CCCCn1cc(CNC(=O)CCP(=O)(O)CN2CCN(CP(=O)(O)CCC(=O)NCc3cn(CCCC[C@H](N)C(=O)N(CCCCN)CC(=O)N[C@@H](CCCCN)C(=O)N4CCC[C@H]4C(=O)N[C@@H](Cc4ccc(O)cc4)C(=O)N[C@H](C(=O)N[C@@H](CC(C)C)C(=O)O)C(C)(C)C)nn3)CCN(CP(=O)(O)CCC(=O)NCc3cn(CCCC[C@H](N)C(=O)N(CCCCN)CC(=O)N[C@@H](CCCCN)C(=O)N4CCC[C@H]4C(=O)N[C@@H](Cc4ccc(O)cc4)C(=O)N[C@H](C(=O)N[C@@H](CC(C)C)C(=O)O)C(C)(C)C)nn3)CC2)nn1)C(C)(C)C)C(=O)O [TRAP(NT4)3],tissue uptake at 1 h,[6]; read-out: HT29 tumor uptake,1.74 %ID/g
same,tissue uptake at 1 h,[6]; read-out: blood uptake,0.13 %ID/g
same,tissue uptake at 1 h,[6]; read-out: kidney uptake,95 %ID/g
same,tissue uptake at 1 h,[6]; read-out: liver uptake,11 %ID/g
same,tissue uptake at 1 h,[6]; read-out: muscle uptake,0.09 %ID/g
same,logD,"[4]; octanol/PBS, Ga complex, ± standard deviation, first reported herein, read-out: log D pH 7.4",-3.7 ± 0.1
same,Ki,human NTS2,0.26 ± 0.05 nM
same,Ki,human NTS1,0.47 ± 0.05 nM
CC(C)C[C@@H]1NC(=O)[C@H](CC(=O)O)NC(=O)CNC(=O)[C@H](CCCNC(=N)N)NC(=O)[C@H](Cc2ccccc2)NC(=O)[C@H](CCCCNC(=O)CCc2cn(CCCNC(=O)CCP(=O)(O)CN3CCN(CP(=O)(O)CCC(=O)NCCCn4cc(CCC(=O)NCCCC[C@H]5C(=O)N[C@@H](Cc6ccccc6)C(=O)N[C@@H](CCCNC(=N)N)C(=O)NCC(=O)N[C@@H](CC(=O)O)C(=O)N[C@@H](CC(C)C)C(=O)N[C@@H](C)C(=O)N[C@@H](Cc6ccccc6)C(=O)N6CCC[C@@H]6C(=O)N5C)nn4)CCN(CP(=O)(O)CCC(=O)NCCCn4cc(CCC(=O)NCCCC[C@H]5C(=O)N[C@@H](Cc6ccccc6)C(=O)N[C@@H](CCCNC(=N)N)C(=O)NCC(=O)N[C@@H](CC(=O)O)C(=O)N[C@@H](CC(C)C)C(=O)N[C@@H](C)C(=O)N[C@@H](Cc6ccccc6)C(=O)N6CCC[C@@H]6C(=O)N5C)nn4)CC3)nn2)N(C)C(=O)[C@H]2CCCN2C(=O)[C@H](Cc2ccccc2)NC(=O)[C@H](C)NC1=O [TRAP(AvB6)3],"Affinity factor monomer/trimer, αvβ6 integrin",αvβ6 integrin [7],11
same,tissue uptake at 1.5 h,[8]; Blood %ID/g,1.9 ± 0.15 %ID/g
same,tissue uptake at 1.5 h,[8]; Kidney %ID/g,17.7 ± 6.5 %ID/g
same,tissue uptake at 1.5 h,[8]; Liver %ID/g,3.7 ± 0.14 %ID/g
same,tissue uptake at 1.5 h,[8]; Muscle %ID/g,0.71 ± 0.1 %ID/g
same,tissue uptake at 1.5 h,[8]; Tumor %ID/g,0.92 ± 0.08 %ID/g
same,IC50,αvβ6 integrin [2],0.023 nM
"CC(C)C[C@H](NC(=O)[C@@H](NC(=O)[C@H](Cc1ccc(O)cc1)NC(=O)[C@@H]1CCCN1C(=O)[C@H](CCCCN)NC(=O)CN(CCCCN)C(=O)[C@@H](N)CCCCn1cc(CNC(=O)CCP(=O)(O)CN2CCN(CP(=O)(O)CCC(=O)NCc3cn(CCCC[C@H](N)C(=O)N(CCCCN)CC(=O)N[C@@H](CCCCN)C(=O)N4CCC[C@H]4C(=O)N[C@@H](Cc4ccc(O)cc4)C(=O)N[C@H](C(=O)N[C@@H](CC(C)C)C(=O)O)C(C)(C)C)nn3)CCN(CP(=O)(O)CCC(=O)NCc3cn(CCCC[C@H](N)C(=O)N(CCCCN)CC(=O)N[C@@H](CCCCN)C(=O)N4CCC[C@H]4C(=O)N[C@@H](Cc4ccc(O)cc4)C(=O)N[C@H](C(=O)N[C@@H](CC(C)C)C(=O)O)C(C)(C)C)nn3)CC2)nn1)C(C)(C)C)C(=O)O (single isomer, unassigned) [Ga-TRAP(NT4)3]",Ki,human NTS1,0.12 ± 0.03 nM
